Target: T1, CD3 epsilon homodimer protein (UniProt P07766 23-126)
T1 construct: construct not described; homodimer as printed; also called CD3 (CD3 epsilon)
Assay: SPR Biacore T200, CD3 epsilon homodimer immobilized; vs unaltered GLS3000;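 note: antibody variants flowed as analyte over CD3 epsilon homodimer amine-coupled to a CM4 chip, at 25 °C in HBS-EP+ running buffer, fitted with Biacore T200 Evaluation Software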

T1 sequence (P07766 23-126): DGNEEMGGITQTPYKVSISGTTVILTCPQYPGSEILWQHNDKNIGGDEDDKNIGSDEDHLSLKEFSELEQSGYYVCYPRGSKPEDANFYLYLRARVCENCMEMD

KD ratio to GLS3000 (Affinity up)	Binder
1.06	GLS3000 Q27R (Kabat) L chain altered form, one-arm antibody with CE115HA000 (antibody, human IgG1, kappa, L234A L235A, N297A, name in Kabat numbering, one-arm antibody) heavy: QVQLVESGGGVVQPGRSLRLSCAASGFTFSNAWMHWVRQAPGKGLEWVAQIKAKSNNYATYYAESVKGRFTISRDDSKNSLYLQMNSLKTEDTAVYYCRYVHYGAYYGVDAWGQGTTVTVSSASTKGPSVFPLAPSSKSTSGGTAALGCLVKDYFPEPVTVSWNSGALTSGVHTFPAVLQSSGLYSLSSVVTVPSSSLGTQTYICNVNHKPSNTKVDKKVEPKSCDKTHTCPPCPAPEAAGGPSVFLFPPKPKDTLMISRTPEVTCVVVDVSHEDPEVKFNWYVDGVEVHNAKTKPREEQYASTYRVVSVLTVLHQDWLNGKEYKCKVSNKALPAPIEKTISKAKGQPREPQVYTLPPSRCELTKNQVSLSCAVKGFYPSDIAVEWESNGQPENNYKTTPPVLDSDGSFFLVSKLTVDKSRWQQGNVFSCSVMHEALHNHYTQKSLSLSPDYKDDDDK EPKSSDKTHTCPPCPAPELLGGPSVFLFPPKPKDTLMISRTPEVTCVVVDVSHEDPEVKFNWYVDGVEVHNAKTKPREEQYNSTYRVVSVLTVLHQDWLNGKEYKCKVSNKALPAPIEKTISKAKGQPREPQVCTLPPSRDELTKNQVSLWCLVKGFYPSDIAVEWESNGQPENNYKTTPPVLDSDGSFFLYSKLTVDKSRWQQGNVFSCSVMHEALHNRYTQKSLSLSP light: DIVMTQSPLSLPVTPGEPASISCRSSRSLVHSNRNTYLHWYQQKPGQAPRLLIYKVSNRFSGVPDRFSGSGSGTDFTLKISRVEAEDVGVYYCGQGTQVPYTFGQGTKLEIKRTVAAPSVFIFPPSDEQLKSGTASVVCLLNNFYPREAKVQWKVDNALQSGNSQESVTEQDSKDSTYSLSSTLTLSKADYEKHKVYACEVTHQGLSSPVTKSFNRGEC
2.16	GLS3000 Q27P (Kabat) L chain altered form, one-arm antibody with CE115HA000 (antibody, human IgG1, kappa, L234A L235A, N297A, name in Kabat numbering, one-arm antibody) heavy: QVQLVESGGGVVQPGRSLRLSCAASGFTFSNAWMHWVRQAPGKGLEWVAQIKAKSNNYATYYAESVKGRFTISRDDSKNSLYLQMNSLKTEDTAVYYCRYVHYGAYYGVDAWGQGTTVTVSSASTKGPSVFPLAPSSKSTSGGTAALGCLVKDYFPEPVTVSWNSGALTSGVHTFPAVLQSSGLYSLSSVVTVPSSSLGTQTYICNVNHKPSNTKVDKKVEPKSCDKTHTCPPCPAPEAAGGPSVFLFPPKPKDTLMISRTPEVTCVVVDVSHEDPEVKFNWYVDGVEVHNAKTKPREEQYASTYRVVSVLTVLHQDWLNGKEYKCKVSNKALPAPIEKTISKAKGQPREPQVYTLPPSRCELTKNQVSLSCAVKGFYPSDIAVEWESNGQPENNYKTTPPVLDSDGSFFLVSKLTVDKSRWQQGNVFSCSVMHEALHNHYTQKSLSLSPDYKDDDDK EPKSSDKTHTCPPCPAPELLGGPSVFLFPPKPKDTLMISRTPEVTCVVVDVSHEDPEVKFNWYVDGVEVHNAKTKPREEQYNSTYRVVSVLTVLHQDWLNGKEYKCKVSNKALPAPIEKTISKAKGQPREPQVCTLPPSRDELTKNQVSLWCLVKGFYPSDIAVEWESNGQPENNYKTTPPVLDSDGSFFLYSKLTVDKSRWQQGNVFSCSVMHEALHNRYTQKSLSLSP light: DIVMTQSPLSLPVTPGEPASISCRSSPSLVHSNRNTYLHWYQQKPGQAPRLLIYKVSNRFSGVPDRFSGSGSGTDFTLKISRVEAEDVGVYYCGQGTQVPYTFGQGTKLEIKRTVAAPSVFIFPPSDEQLKSGTASVVCLLNNFYPREAKVQWKVDNALQSGNSQESVTEQDSKDSTYSLSSTLTLSKADYEKHKVYACEVTHQGLSSPVTKSFNRGEC

Continued, binder first:

Binder	KD ratio to GLS3000 (Affinity up)
GLS3000 N53A (Kabat) L chain altered form, one-arm antibody with CE115HA000 (antibody, human IgG1, kappa, L234A L235A, N297A, name in Kabat numbering, one-arm antibody) heavy: QVQLVESGGGVVQPGRSLRLSCAASGFTFSNAWMHWVRQAPGKGLEWVAQIKAKSNNYATYYAESVKGRFTISRDDSKNSLYLQMNSLKTEDTAVYYCRYVHYGAYYGVDAWGQGTTVTVSSASTKGPSVFPLAPSSKSTSGGTAALGCLVKDYFPEPVTVSWNSGALTSGVHTFPAVLQSSGLYSLSSVVTVPSSSLGTQTYICNVNHKPSNTKVDKKVEPKSCDKTHTCPPCPAPEAAGGPSVFLFPPKPKDTLMISRTPEVTCVVVDVSHEDPEVKFNWYVDGVEVHNAKTKPREEQYASTYRVVSVLTVLHQDWLNGKEYKCKVSNKALPAPIEKTISKAKGQPREPQVYTLPPSRCELTKNQVSLSCAVKGFYPSDIAVEWESNGQPENNYKTTPPVLDSDGSFFLVSKLTVDKSRWQQGNVFSCSVMHEALHNHYTQKSLSLSPDYKDDDDK EPKSSDKTHTCPPCPAPELLGGPSVFLFPPKPKDTLMISRTPEVTCVVVDVSHEDPEVKFNWYVDGVEVHNAKTKPREEQYNSTYRVVSVLTVLHQDWLNGKEYKCKVSNKALPAPIEKTISKAKGQPREPQVCTLPPSRDELTKNQVSLWCLVKGFYPSDIAVEWESNGQPENNYKTTPPVLDSDGSFFLYSKLTVDKSRWQQGNVFSCSVMHEALHNRYTQKSLSLSP light: DIVMTQSPLSLPVTPGEPASISCRSSQSLVHSNRNTYLHWYQQKPGQAPRLLIYKVSARFSGVPDRFSGSGSGTDFTLKISRVEAEDVGVYYCGQGTQVPYTFGQGTKLEIKRTVAAPSVFIFPPSDEQLKSGTASVVCLLNNFYPREAKVQWKVDNALQSGNSQESVTEQDSKDSTYSLSSTLTLSKADYEKHKVYACEVTHQGLSSPVTKSFNRGEC	0.82
GLS3000 Q27D (Kabat) L chain altered form, one-arm antibody with CE115HA000 (antibody, human IgG1, kappa, L234A L235A, N297A, name in Kabat numbering, one-arm antibody) heavy: QVQLVESGGGVVQPGRSLRLSCAASGFTFSNAWMHWVRQAPGKGLEWVAQIKAKSNNYATYYAESVKGRFTISRDDSKNSLYLQMNSLKTEDTAVYYCRYVHYGAYYGVDAWGQGTTVTVSSASTKGPSVFPLAPSSKSTSGGTAALGCLVKDYFPEPVTVSWNSGALTSGVHTFPAVLQSSGLYSLSSVVTVPSSSLGTQTYICNVNHKPSNTKVDKKVEPKSCDKTHTCPPCPAPEAAGGPSVFLFPPKPKDTLMISRTPEVTCVVVDVSHEDPEVKFNWYVDGVEVHNAKTKPREEQYASTYRVVSVLTVLHQDWLNGKEYKCKVSNKALPAPIEKTISKAKGQPREPQVYTLPPSRCELTKNQVSLSCAVKGFYPSDIAVEWESNGQPENNYKTTPPVLDSDGSFFLVSKLTVDKSRWQQGNVFSCSVMHEALHNHYTQKSLSLSPDYKDDDDK EPKSSDKTHTCPPCPAPELLGGPSVFLFPPKPKDTLMISRTPEVTCVVVDVSHEDPEVKFNWYVDGVEVHNAKTKPREEQYNSTYRVVSVLTVLHQDWLNGKEYKCKVSNKALPAPIEKTISKAKGQPREPQVCTLPPSRDELTKNQVSLWCLVKGFYPSDIAVEWESNGQPENNYKTTPPVLDSDGSFFLYSKLTVDKSRWQQGNVFSCSVMHEALHNRYTQKSLSLSP light: DIVMTQSPLSLPVTPGEPASISCRSSDSLVHSNRNTYLHWYQQKPGQAPRLLIYKVSNRFSGVPDRFSGSGSGTDFTLKISRVEAEDVGVYYCGQGTQVPYTFGQGTKLEIKRTVAAPSVFIFPPSDEQLKSGTASVVCLLNNFYPREAKVQWKVDNALQSGNSQESVTEQDSKDSTYSLSSTLTLSKADYEKHKVYACEVTHQGLSSPVTKSFNRGEC	0.89
GLS3000 Q27L (Kabat) L chain altered form, one-arm antibody with CE115HA000 (antibody, human IgG1, kappa, L234A L235A, N297A, name in Kabat numbering, one-arm antibody) heavy: QVQLVESGGGVVQPGRSLRLSCAASGFTFSNAWMHWVRQAPGKGLEWVAQIKAKSNNYATYYAESVKGRFTISRDDSKNSLYLQMNSLKTEDTAVYYCRYVHYGAYYGVDAWGQGTTVTVSSASTKGPSVFPLAPSSKSTSGGTAALGCLVKDYFPEPVTVSWNSGALTSGVHTFPAVLQSSGLYSLSSVVTVPSSSLGTQTYICNVNHKPSNTKVDKKVEPKSCDKTHTCPPCPAPEAAGGPSVFLFPPKPKDTLMISRTPEVTCVVVDVSHEDPEVKFNWYVDGVEVHNAKTKPREEQYASTYRVVSVLTVLHQDWLNGKEYKCKVSNKALPAPIEKTISKAKGQPREPQVYTLPPSRCELTKNQVSLSCAVKGFYPSDIAVEWESNGQPENNYKTTPPVLDSDGSFFLVSKLTVDKSRWQQGNVFSCSVMHEALHNHYTQKSLSLSPDYKDDDDK EPKSSDKTHTCPPCPAPELLGGPSVFLFPPKPKDTLMISRTPEVTCVVVDVSHEDPEVKFNWYVDGVEVHNAKTKPREEQYNSTYRVVSVLTVLHQDWLNGKEYKCKVSNKALPAPIEKTISKAKGQPREPQVCTLPPSRDELTKNQVSLWCLVKGFYPSDIAVEWESNGQPENNYKTTPPVLDSDGSFFLYSKLTVDKSRWQQGNVFSCSVMHEALHNRYTQKSLSLSP light: DIVMTQSPLSLPVTPGEPASISCRSSLSLVHSNRNTYLHWYQQKPGQAPRLLIYKVSNRFSGVPDRFSGSGSGTDFTLKISRVEAEDVGVYYCGQGTQVPYTFGQGTKLEIKRTVAAPSVFIFPPSDEQLKSGTASVVCLLNNFYPREAKVQWKVDNALQSGNSQESVTEQDSKDSTYSLSSTLTLSKADYEKHKVYACEVTHQGLSSPVTKSFNRGEC	0.86
GLS3000 Q27E (Kabat) L chain altered form, one-arm antibody with CE115HA000 (antibody, human IgG1, kappa, L234A L235A, N297A, name in Kabat numbering, one-arm antibody) heavy: QVQLVESGGGVVQPGRSLRLSCAASGFTFSNAWMHWVRQAPGKGLEWVAQIKAKSNNYATYYAESVKGRFTISRDDSKNSLYLQMNSLKTEDTAVYYCRYVHYGAYYGVDAWGQGTTVTVSSASTKGPSVFPLAPSSKSTSGGTAALGCLVKDYFPEPVTVSWNSGALTSGVHTFPAVLQSSGLYSLSSVVTVPSSSLGTQTYICNVNHKPSNTKVDKKVEPKSCDKTHTCPPCPAPEAAGGPSVFLFPPKPKDTLMISRTPEVTCVVVDVSHEDPEVKFNWYVDGVEVHNAKTKPREEQYASTYRVVSVLTVLHQDWLNGKEYKCKVSNKALPAPIEKTISKAKGQPREPQVYTLPPSRCELTKNQVSLSCAVKGFYPSDIAVEWESNGQPENNYKTTPPVLDSDGSFFLVSKLTVDKSRWQQGNVFSCSVMHEALHNHYTQKSLSLSPDYKDDDDK EPKSSDKTHTCPPCPAPELLGGPSVFLFPPKPKDTLMISRTPEVTCVVVDVSHEDPEVKFNWYVDGVEVHNAKTKPREEQYNSTYRVVSVLTVLHQDWLNGKEYKCKVSNKALPAPIEKTISKAKGQPREPQVCTLPPSRDELTKNQVSLWCLVKGFYPSDIAVEWESNGQPENNYKTTPPVLDSDGSFFLYSKLTVDKSRWQQGNVFSCSVMHEALHNRYTQKSLSLSP light: DIVMTQSPLSLPVTPGEPASISCRSSESLVHSNRNTYLHWYQQKPGQAPRLLIYKVSNRFSGVPDRFSGSGSGTDFTLKISRVEAEDVGVYYCGQGTQVPYTFGQGTKLEIKRTVAAPSVFIFPPSDEQLKSGTASVVCLLNNFYPREAKVQWKVDNALQSGNSQESVTEQDSKDSTYSLSSTLTLSKADYEKHKVYACEVTHQGLSSPVTKSFNRGEC	0.99
